PMC5932101 (EJNMMI Radiopharmacy and Chemistry, 2018)

Columns and labels:
[1] = in vivo; set-up: species or system mice; settings: female, athymic Balb/c nude, mouse, iv, total radioactivity
Experimental: (§1) All animal experiments complied with the current laws of the Federal Republic of Germany and were conducted according to German Animal welfare guidelines. Normal female athymic Balb/c nude mice (17–20 g, 4–6 weeks old) were obtained from Janvier SAS (St. Berthevin Cedex, France). Mice were provided with food and water ad libitum. U-87 MG tumors were inoculated on the right shoulder by sub-cutaneous injection of 5×10^6 cells in a 100 μL cell suspension of a 1:1 v/v mixture of media with reconstituted basement membrane (GFR BD Matrigel™, Corning BV, Amsterdam, Holland).
For PET imaging studies, mice (n = 3) were injected with 100 μL sterile filtered phosphate buffered saline formulations pH 7.4 of [^68Ga]3 (7–11 MBq) by intravenous tail-vein injection and anesthetized with isoflurane (2–4% in air) 5–10 min prior image acquisition. PET imaging was performed on a Focus 120 microPET scanner at 1 h after administration. Data were acquired 1 h post administration in list mode. Reconstruction was performed using unweighted OSEM2D. Image analysis was performed using AMIDE. Image counts per second per voxel (cps/voxel) were calibrated to activity concentrations (Bq mL^− 1) by measuring a 3.5 cm cylinder phantom filled with a known concentration of radioactivity.

[2] = in vivo; set-up: species or system mice; settings: female, athymic Balb/c nude, mouse, iv, total radioactivity; remark: listed apart in the source
Experimental: as §1
For each compound, a total of five animals were injected with [^68Ga]3 (7–11 MBq) in 100 μL sterile filtered phosphate buffered saline via a tail vein. At 1 h p.i., animals were sacrificed by isoflurane anesthesia. Organs of interest were dissected, weighed and assayed for radioactivity in a gamma counter. The percent injected activity per gram (%IA g^− 1) for each tissue was calculated by comparison of the tissue counts to a standard sample prepared from the injectate.

[3] = cited from earlier work
Excerpt: The radiolabelled conjugate [^68Ga]3 is highly hydrophilic with a log Doct/PBS value of − 3.89 ± 0.02.

[4] = system: U-87 MG tumor bearing mice; settings: mouse, in vivo; cited from earlier work
Experimental: In addition to the ex vivo biodistribution studies, the distribution profile of [^68Ga]3 was also assessed 1 h after administration by small-animal PET imaging. Corresponding transverse and coronal maximum intensity projections of [^68Ga]3 in αvß3 xenograft bearing mice along with blocking studies are given Fig. 2. The results of the biodistribution study were confirmed by PET imaging. The αvß3 positive U-87 MG tumors as well as the liver and the kidneys were clearly visible on the PET images. The tumor uptake of [^68Ga]3 was determined to 2.48 ± 0.14 %IA g^− 1. The differences in blood and ti ...

[5] = system: mice bearing αvß3-positive U-87 MG tumors; settings: mouse, in vivo; cited from earlier work
Experimental: Table 1 Ex vivo biodistribution of [^68Ga]3 in mice bearing αvß3-positive U-87 MG tumors at 1 h p.i. along with blocking studies in comparison to [^68Ga]Ga-NODAGA-c(RGDfK) and [^68Ga]Ga-DOTA-c(RGDfK) (data taken from ref. Dumont et al. [2011]). Data are expressed as %IA g^− 1 and represent mean ± SD (n = 5) | column: [^68Ga]Ga-NODAGA-c(RGDfK) / 1 h; [^68Ga]Ga-DOTA-c(RGDfK) / 1 h || Biodistribution data for [^68Ga]3 are presented in Table 1. For comparison, equivalent data taken from the literature are also given for compounds [^68Ga]Ga-NODAGA-c(RGDfK) and [^68Ga]Ga-DOTA-c(RGDfK) (Dumont et al. [2011]). The primary difference between these three compounds is the change in chelator.

Compound | tissue to tissue ratio at 1 h [1] | tissue uptake at 1 h ([2]; Accumulation in all other organs (other than tumor, kidney, liver)) [%ID/g] | tissue to tissue ratio at 1 h ([2]; Tumor-to-blood ratio) | tissue to tissue ratio at 1 h ([2]; Tumor-to-kidney ratio) | tissue to tissue ratio at 1 h ([2]; Tumor-to-liver ratio) | tissue to tissue ratio at 1 h ([2]; Tumor-to-muscle ratio) | log D [3] | Tumor-to-background ratio (PET) [4] | Tumor-to-blood ratio [5] | Tumor-to-kidney ratio [5] | Tumor-to-liver ratio [5] | Tumor-to-muscle ratio [5]
Cn1ccnc1CN1CCN(CC(=O)NCCCC[C@@H]2NC(=O)[C@@H](Cc3ccccc3)NC(=O)[C@H](CC(=O)O)NC(=O)CNC(=O)[C@H](CCCNC(=N)N)NC2=O)CCN(Cc2nccn2C)CC1 [[^68Ga]3, [^68Ga]Ga-NODIA-Me-c(RGDfK), metal not drawn] | 6.76 | < 1 | 3.91 ± 0.43 | 1.27 ± 0.04 | 2.08 ± 0.18 | 11.7 ± 0.29 | – | – | – | – | – | –
[^68Ga]Ga-DOTA-c(RGDfK) (head to tail) | – | – | – | – | – | – | − 2.86 ± 0.01 | 3.28 | 9.24 ± 1.12 | 1.57 ± 0.14 | 2.25 ± 0.37 | 12.37 ± 1.81
[^68Ga]Ga-NODAGA-c(RGDfK) (head to tail) | – | – | – | – | – | – | − 3.27 ± 0.01 | 11.97 | 27.67 ± 7.01 | 2.64 ± 0.31 | 2.75 ± 0.31 | 12.80 ± 5.25
